Results taken from FireProtDB (doi:10.1074/jbc.270.30.17712).
Several values for one entry are separate records, joined by “and”; a condition that tells them apart may be missing. Equal entries are not always repeated.

Settings: Escherichia coli (strain K12); pH 7.8; 23 °C; Urea; Absorbance; Potassium phosphate 10 mM; transition: 3; reversible: yes; whole UniProt chain shown

B1: Tryptophan synthase alpha chain wild type, P0A877 (protein)
chain: MERYESLFAQLKERKEGAFVPFVTLGDPGIEQSLKIIDTLIEAGADALELGIPFSDPLADGPTIQNATLRAFAAGVTPAQCFEMLALIRQKHPTIPIGLLMYANLVFNKGIDEFYAQCEKVGVDSVLVADVPVEESAPFRQAALRHNVAPIFICPPNADDDLLRQIASYGRGYTYLLSRAGVTGAENRAALPLNHLVAKLKEYNAAPPLQGFGISAPDQVKAAIDAGAAGAISGSAIVKIIEQHINEPEKMLAALKVFVQPMKAATRS
Q: For B1, which denaturant m value is on record?
A: Its denaturant m value is 2.5 kcal/mol/M and 1.4 kcal/mol/M.

Q: What about the “denaturant midpoint (higher = more stable)” value of the same protein?
A: Its value is 2.51 M and 3.73 M.

Q: And the unfolding free energy?
A: The unfolding free energy was 6.4 kcal/mol and 5.2 kcal/mol.
